Results taken from patent US20240294640A1 (published 2024).
Read-outs that look alike come from different tables or passages of the source.

Key:
[1] = target: T1, CD3 naturally expressed on Jurkat cells (human, UniProt P07766 23-207); assay: FACS
[2] = target: T1, CD3 naturally expressed on Jurkat cells; assay: FACS; remark: listed apart in the source

T1 sequence (P07766 23-207): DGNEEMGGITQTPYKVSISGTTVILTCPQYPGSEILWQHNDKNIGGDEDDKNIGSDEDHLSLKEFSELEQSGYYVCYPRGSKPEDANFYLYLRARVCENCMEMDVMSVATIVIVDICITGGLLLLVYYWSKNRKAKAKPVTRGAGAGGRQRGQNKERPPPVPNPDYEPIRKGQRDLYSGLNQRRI

B1: QP372337241461 (antibody)
chain 1: MEFGLSWLFLVAILKGVQCQVQLVQSGAEVKKPGASVKVSCKASGYTFTSYIMHWVRQAPGQGLEWMGYINPYNDGTKYNEKFKGRVTMTRDTSTSTVYMELSSLRSEDTAVYYCARLGFTTRNAMDYWGQGTLVTVSSASTKGPSVFPLAPSSKSTSGGTAALGCLVKDYFPEPVTVSWNSGALTSGVHTFPAVLQSSGLYSLSSVVTVPSSSLGTQTYICNVNHKPSNTKVDKKVEPKSCGGGGSGGGGSGGGGSEVQLLESGGGLVQPGGSLKLSCAASGFTFNTYAMNWVRQAPGKGLEWVARIRSKYNNYATYYADSVKDRFTISRDDSKNTAYLQMNNLKTEDTAVYYCVRHGNFGNSYVSWFAYWGQGTLVTVSSGGGGSGGGGSGGGGSESKYGPPCPPCPAPEFLGGPSVFLFPPKPKDTLMISRTPEVTCVVVDVSQEDPEVQFNWYVDGVEVHNAKTKPREEQFNSTYRVVSVLTVLHQDWLNGKEYKCKVSNKGLPSSIEKTISKAKGQPREPQVYTLPPSQEEMTKNQVSLSCAVKGFYPSDIAVEWESNGQPENNYKTTPPVLDSDGSFFLVSRLTVDKSRWQEGNVFSCSVMHEALHNHYTQKSLSLSLGGSSDYKDDDDK
chain 2: not shown
chain 3: not shown
Question: For B1, which EC50 [1] is on record?
Answer: 172 nM

B2: QP090837493746 (bispecific antibody)
chain 1: not shown
chain 2: not shown
chain 3: QVQLVQSGAEVKKPGASVKVSCKASGYTFTSYIMHWVRQAPGQGLEWMGYINPYNDGTKYNEKFKGRVTMTRDTSTSTVYMELSSLRSEDTAVYYCARLGFTTRNAMDYWGQGTLVTVSSASTKGPSVFPLAPSSKSTSGGTAALGCLVKDYFPEPVTVSWNSGALTSGVHTFPAVLQSSGLYSLSSVVTVPSSSLGTQTYICNVNHKPSNTKVDKKVEPKSC
Question: Which EC50 [2] does the source give for B2 here?
Answer: 64.3 nM

B3: QP091037493746 (bispecific antibody)
chain 1: not shown
chain 2: not shown
chain 3: QVQLVQSGAEVKKPGASVKVSCKASGYTFTSYIMHWVRQAPGQGLEWMGYINPYNDGTKYNEKFKGRVTMTRDTSTSTVYMELSSLRSEDTAVYYCARLGFTTRNAMDYWGQGTLVTVSSASTKGPSVFPLAPSSKSTSGGTAALGCLVKDYFPEPVTVSWNSGALTSGVHTFPAVLQSSGLYSLSSVVTVPSSSLGTQTYICNVNHKPSNTKVDKKVEPKSC
Question: B3 was tested. Which EC50 [2] did it give?
Answer: 34 nM

B4: QP090937493746 (bispecific antibody)
chain 1: not shown
chain 2: not shown
chain 3: QVQLVQSGAEVKKPGASVKVSCKASGYTFTSYIMHWVRQAPGQGLEWMGYINPYNDGTKYNEKFKGRVTMTRDTSTSTVYMELSSLRSEDTAVYYCARLGFTTRNAMDYWGQGTLVTVSSASTKGPSVFPLAPSSKSTSGGTAALGCLVKDYFPEPVTVSWNSGALTSGVHTFPAVLQSSGLYSLSSVVTVPSSSLGTQTYICNVNHKPSNTKVDKKVEPKSC
Question: How did the EC50 [2] turn out when B4 was run?
Answer: 21.9 nM

B5: QP374437481461 (antibody)
chain 1: not shown
chain 2: MEFGLSWLFLVAILKGVQCQVQLVQSGAEVKKPGASVKVSCKASGYTFTSYIMHWVRQAPGQGLEWMGYINPYNDGTKYNEKFKGRVTMTRDTSTSTVYMELSSLRSEDTAVYYCARLGFTTRNAMDYWGQGTLVTVSSASTKGPSVFPLAPSSKSTSGGTAALGCLVKDYFPEPVTVSWNSGALTSGVHTFPAVLQSSGLYSLSSVVTVPSSSLGTQTYICNVNHKPSNTKVDKKVEPKSCESKYGPPCPPCPAPEFLGGPSVFLFPPKPKDTLMISRTPEVTCVVVDVSQEDPEVQFNWYVDGVEVHNAKTKPREEQFNSTYRVVSVLTVLHQDWLNGKEYKCKVSNKGLPSSIEKTISKAKGQPREPQVYTLPPSQEEMTKNQVSLSCAVKGFYPSDIAVEWESNGQPENNYKTTPPVLDSDGSFFLVSRLTVDKSRWQEGNVFSCSVMHEALHNHYTQKSLSLSLGGSSDYKDDDDK
chain 3: not shown
Question: Which EC50 [1] does the source give for B5 here?
Answer: 133 nM
